According to US20110190196A1 (University of California, published 2011):
Read-outs that look alike come from different tables or passages of the source.

How the values were obtained:
Experiment in all cases: cell-based or functional assay
[1] = target: T1, ATP-binding cassette transporter A1 (ABCA1) (UniProt P41233 1-2261, limits assumed)
[2] = target: T1, ATP-binding cassette transporter A1 …; remark: listed apart in the source
[3] = target: T1, ATP-binding cassette transporter A1 …; remark: listed apart in the source
[4] = target: T1, ATP-binding cassette transporter A1 …; remark: listed apart in the source
[5] = target: T1, ATP-binding cassette transporter A1 …; remark: listed apart in the source
[6] = target: T1, ATP-binding cassette transporter A1 …; remark: listed apart in the source

T1 sequence (P41233 whole entry): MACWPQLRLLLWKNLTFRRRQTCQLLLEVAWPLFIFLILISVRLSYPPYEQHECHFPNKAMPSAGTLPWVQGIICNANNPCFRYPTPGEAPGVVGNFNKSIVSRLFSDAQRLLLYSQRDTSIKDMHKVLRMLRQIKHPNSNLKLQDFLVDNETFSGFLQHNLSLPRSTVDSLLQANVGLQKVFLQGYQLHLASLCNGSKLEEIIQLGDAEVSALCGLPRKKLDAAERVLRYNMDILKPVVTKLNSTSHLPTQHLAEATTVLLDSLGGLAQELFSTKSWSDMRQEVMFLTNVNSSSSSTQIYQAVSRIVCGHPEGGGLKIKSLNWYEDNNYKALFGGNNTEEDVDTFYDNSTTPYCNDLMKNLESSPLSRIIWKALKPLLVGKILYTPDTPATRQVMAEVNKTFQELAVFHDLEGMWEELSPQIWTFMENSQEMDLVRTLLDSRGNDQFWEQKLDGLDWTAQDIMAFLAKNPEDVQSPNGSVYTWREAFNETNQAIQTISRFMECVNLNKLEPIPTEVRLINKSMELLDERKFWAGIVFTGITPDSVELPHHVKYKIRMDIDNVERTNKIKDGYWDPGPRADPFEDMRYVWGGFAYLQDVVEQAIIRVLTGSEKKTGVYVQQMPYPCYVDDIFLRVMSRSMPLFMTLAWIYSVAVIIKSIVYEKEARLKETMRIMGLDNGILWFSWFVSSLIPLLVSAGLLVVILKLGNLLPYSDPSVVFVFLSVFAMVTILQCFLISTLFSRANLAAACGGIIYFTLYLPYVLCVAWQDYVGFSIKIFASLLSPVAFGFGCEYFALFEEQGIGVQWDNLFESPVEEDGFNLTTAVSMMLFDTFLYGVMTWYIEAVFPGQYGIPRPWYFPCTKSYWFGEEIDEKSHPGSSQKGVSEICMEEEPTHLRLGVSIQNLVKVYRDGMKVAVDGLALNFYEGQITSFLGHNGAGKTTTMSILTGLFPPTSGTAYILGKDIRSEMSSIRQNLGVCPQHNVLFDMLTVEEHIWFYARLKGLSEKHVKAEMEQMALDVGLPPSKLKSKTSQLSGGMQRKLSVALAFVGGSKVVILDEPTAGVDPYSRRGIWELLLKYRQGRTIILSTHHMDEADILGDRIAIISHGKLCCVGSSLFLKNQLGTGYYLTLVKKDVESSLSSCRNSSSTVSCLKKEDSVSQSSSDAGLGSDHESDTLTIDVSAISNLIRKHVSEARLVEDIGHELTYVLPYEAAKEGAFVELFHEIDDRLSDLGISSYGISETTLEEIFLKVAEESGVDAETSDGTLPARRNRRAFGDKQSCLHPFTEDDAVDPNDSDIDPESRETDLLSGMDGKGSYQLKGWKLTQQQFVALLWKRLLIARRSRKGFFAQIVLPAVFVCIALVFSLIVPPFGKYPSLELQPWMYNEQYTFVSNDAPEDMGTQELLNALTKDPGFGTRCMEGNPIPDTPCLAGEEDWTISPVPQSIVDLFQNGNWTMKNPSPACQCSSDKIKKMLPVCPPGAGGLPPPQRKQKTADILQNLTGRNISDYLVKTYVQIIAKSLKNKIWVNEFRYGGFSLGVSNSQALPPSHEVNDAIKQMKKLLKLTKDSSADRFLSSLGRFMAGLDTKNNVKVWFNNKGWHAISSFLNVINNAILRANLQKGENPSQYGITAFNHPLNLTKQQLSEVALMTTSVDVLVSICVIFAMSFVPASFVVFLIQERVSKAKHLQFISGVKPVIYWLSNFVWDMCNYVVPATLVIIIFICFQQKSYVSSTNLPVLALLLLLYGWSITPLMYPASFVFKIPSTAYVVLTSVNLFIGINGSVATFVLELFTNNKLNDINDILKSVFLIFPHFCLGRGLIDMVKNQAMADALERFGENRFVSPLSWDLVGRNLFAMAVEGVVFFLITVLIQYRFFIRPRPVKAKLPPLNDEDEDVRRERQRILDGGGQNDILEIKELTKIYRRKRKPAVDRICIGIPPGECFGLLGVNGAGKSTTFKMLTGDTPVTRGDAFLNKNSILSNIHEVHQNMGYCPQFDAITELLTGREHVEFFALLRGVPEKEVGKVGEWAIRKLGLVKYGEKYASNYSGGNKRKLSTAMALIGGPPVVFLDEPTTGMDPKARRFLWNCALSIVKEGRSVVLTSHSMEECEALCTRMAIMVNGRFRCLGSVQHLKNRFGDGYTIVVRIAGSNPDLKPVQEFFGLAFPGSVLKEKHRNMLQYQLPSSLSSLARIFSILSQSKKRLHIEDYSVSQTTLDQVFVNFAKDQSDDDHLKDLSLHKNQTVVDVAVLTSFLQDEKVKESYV

ELREKLEAWFELFAEFFARFKS [N356-4]
% cholesterol efflux/8 hours, No cAMP [1]: 1.72% | % cholesterol efflux/8 hours, Plus cAMP [1]: 4.25% | % cholesterol efflux/4 hours at 0.1 µg/ml [2]: 0.14% | % cholesterol efflux/4 hours at 0.3 µg/ml [2]: 0.61% | % cholesterol efflux/4 hours at 1.0 µg/ml [2]: 1.89% | % cholesterol efflux/4 hours at 3.0 µg/ml [2]: 5.68% | % cholesterol efflux/4 hours at 10 µg/ml [2]: 6.06% | % cholesterol efflux/4 hours at 30 µg/ml [2]: 6.52%

EVREKLEAWFELFREFAERFKS [N965-2]
% cholesterol efflux/4 hours at 0.1 µg/ml [3]: 0% | % cholesterol efflux/4 hours at 0.3 µg/ml [3]: 0.13% | % cholesterol efflux/4 hours at 1.0 µg/ml [3]: 0.01% | % cholesterol efflux/4 hours at 3.0 µg/ml [3]: 2.23% | % cholesterol efflux/4 hours at 10 µg/ml [3]: 5.96% | % cholesterol efflux/4 hours at 30 µg/ml [3]: 3.98% | % cholesterol efflux/8 hours, +cAMP [4]: 6.97% | % cholesterol efflux/8 hours, -cAMP [4]: 1.28%

EVREKLEAWFELFREFAERFLS [N965-3]
% cholesterol efflux/4 hours at 0.1 µg/ml [3]: 0.23% | % cholesterol efflux/4 hours at 0.3 µg/ml [3]: 0.47% | % cholesterol efflux/4 hours at 1.0 µg/ml [3]: 1.06% | % cholesterol efflux/4 hours at 3.0 µg/ml [3]: 3.48% | % cholesterol efflux/4 hours at 10 µg/ml [3]: 3.05% | % cholesterol efflux/4 hours at 30 µg/ml [3]: 2.53% | % cholesterol efflux/8 hours, +cAMP [4]: 3.85% | % cholesterol efflux/8 hours, -cAMP [4]: 1.45%

EVREKLEAWFELFREFLERFKS [N965-4]
% cholesterol efflux/4 hours at 0.1 µg/ml [3]: 0.29% | % cholesterol efflux/4 hours at 0.3 µg/ml [3]: 0.67% | % cholesterol efflux/4 hours at 1.0 µg/ml [3]: 2.7% | % cholesterol efflux/4 hours at 3.0 µg/ml [3]: 4.72% | % cholesterol efflux/4 hours at 10 µg/ml [3]: 4% | % cholesterol efflux/4 hours at 30 µg/ml [3]: 2.94% | % cholesterol efflux/8 hours, +cAMP [4]: 4.76% | % cholesterol efflux/8 hours, -cAMP [4]: 1.52%

EVREKLEAWFELFREFLERFLS [N965-5]
% cholesterol efflux/4 hours at 0.1 µg/ml [3]: 0.12% | % cholesterol efflux/4 hours at 0.3 µg/ml [3]: 0.9% | % cholesterol efflux/4 hours at 1.0 µg/ml [3]: 2.13% | % cholesterol efflux/4 hours at 3.0 µg/ml [3]: 4.89% | % cholesterol efflux/4 hours at 10 µg/ml [3]: 4.06% | % cholesterol efflux/4 hours at 30 µg/ml [3]: 3.82% | % cholesterol efflux/8 hours, +cAMP [4]: 5.52% | % cholesterol efflux/8 hours, -cAMP [4]: 2.91%

EVREKLEAWFELFREFLERFL [N965-6]
% cholesterol efflux/4 hours at 0.1 µg/ml [3]: 0.11% | % cholesterol efflux/4 hours at 0.3 µg/ml [3]: 0.49% | % cholesterol efflux/4 hours at 1.0 µg/ml [3]: 1.59% | % cholesterol efflux/4 hours at 3.0 µg/ml [3]: 1.98% | % cholesterol efflux/4 hours at 10 µg/ml [3]: 2.22% | % cholesterol efflux/4 hours at 30 µg/ml [3]: 2.75% | % cholesterol efflux/8 hours, +cAMP [4]: 6.18% | % cholesterol efflux/8 hours, -cAMP [4]: 3.15%

EVREKLEAWFELFREFLERF [N965-7]
% cholesterol efflux/4 hours at 0.1 µg/ml [3]: 0.03% | % cholesterol efflux/4 hours at 0.3 µg/ml [3]: 0.3% | % cholesterol efflux/4 hours at 1.0 µg/ml [3]: 1.39% | % cholesterol efflux/4 hours at 3.0 µg/ml [3]: 4.94% | % cholesterol efflux/4 hours at 10 µg/ml [3]: 3.65% | % cholesterol efflux/4 hours at 30 µg/ml [3]: 2.66% | % cholesterol efflux/8 hours, +cAMP [4]: 4.03% | % cholesterol efflux/8 hours, -cAMP [4]: 1.5%

ELREKLEAWRELFEEFFARFLS [N965-9]
% cholesterol efflux/4 hours at 0.1 µg/ml [3]: 0.03% | % cholesterol efflux/4 hours at 0.3 µg/ml [3]: 0.41% | % cholesterol efflux/4 hours at 1.0 µg/ml [3]: 0.72% | % cholesterol efflux/4 hours at 3.0 µg/ml [3]: 2.45% | % cholesterol efflux/4 hours at 10 µg/ml [3]: 1.77% | % cholesterol efflux/4 hours at 30 µg/ml [3]: 1.41% | % cholesterol efflux/8 hours, +cAMP [4]: 2.94% | % cholesterol efflux/8 hours, -cAMP [4]: 1.06%

EVREKLEAWFEAFREFAERFKS [N965-1]
% cholesterol efflux/4 hours at 0.1 µg/ml [3]: 0% | % cholesterol efflux/4 hours at 0.3 µg/ml [3]: 0.13% | % cholesterol efflux/4 hours at 1.0 µg/ml [3]: 0% | % cholesterol efflux/4 hours at 3.0 µg/ml [3]: 0.44% | % cholesterol efflux/4 hours at 10 µg/ml [3]: 2.9% | % cholesterol efflux/4 hours at 30 µg/ml [3]: 6.01% | % cholesterol efflux/8 hours, +cAMP [4]: 9.9% | % cholesterol efflux/8 hours, -cAMP [4]: 1.75%

ELREKLEAWFELFAEFFARFK [N356-5]
% cholesterol efflux/8 hours, No cAMP [1]: 2.18% | % cholesterol efflux/8 hours, Plus cAMP [1]: 5.97% | % cholesterol efflux/4 hours at 0.1 µg/ml [2]: 0.02% | % cholesterol efflux/4 hours at 0.3 µg/ml [2]: 0.31% | % cholesterol efflux/4 hours at 1.0 µg/ml [2]: 1.59% | % cholesterol efflux/4 hours at 3.0 µg/ml [2]: 4.27% | % cholesterol efflux/4 hours at 10 µg/ml [2]: 3.86% | % cholesterol efflux/4 hours at 30 µg/ml [2]: 3.2%

ELREKLEAWFELFAEFFARF [N356-6]
% cholesterol efflux/8 hours, No cAMP [1]: 2.09% | % cholesterol efflux/8 hours, Plus cAMP [1]: 4.04% | % cholesterol efflux/4 hours at 0.1 µg/ml [2]: 0.01% | % cholesterol efflux/4 hours at 0.3 µg/ml [2]: 0.23% | % cholesterol efflux/4 hours at 1.0 µg/ml [2]: 0.67% | % cholesterol efflux/4 hours at 3.0 µg/ml [2]: 4.07% | % cholesterol efflux/4 hours at 10 µg/ml [2]: 3.78% | % cholesterol efflux/4 hours at 30 µg/ml [2]: 3.91%

ELRAKLEAWFEAFAEFFARF [N356-7]
% cholesterol efflux/8 hours, No cAMP [1]: 2.78% | % cholesterol efflux/8 hours, Plus cAMP [1]: 7% | % cholesterol efflux/4 hours at 0.1 µg/ml [2]: 0.15% | % cholesterol efflux/4 hours at 0.3 µg/ml [2]: 0.23% | % cholesterol efflux/4 hours at 1.0 µg/ml [2]: 1.17% | % cholesterol efflux/4 hours at 3.0 µg/ml [2]: 4.99% | % cholesterol efflux/4 hours at 10 µg/ml [2]: 5.49% | % cholesterol efflux/4 hours at 30 µg/ml [2]: 5.66%

ELREKLEAWFEAFEEFFARFKS [N356-1]
% cholesterol efflux/8 hours, No cAMP [1]: 0.86% | % cholesterol efflux/8 hours, Plus cAMP [1]: 4.16% | % cholesterol efflux/4 hours at 0.1 µg/ml [2]: 0% | % cholesterol efflux/4 hours at 0.3 µg/ml [2]: 0% | % cholesterol efflux/4 hours at 1.0 µg/ml [2]: 0.23% | % cholesterol efflux/4 hours at 3.0 µg/ml [2]: 4.71% | % cholesterol efflux/4 hours at 10 µg/ml [2]: 5.61% | % cholesterol efflux/4 hours at 30 µg/ml [2]: 3.5%

ELREKLEAWRELFEEFFARFKS [N356-2]
% cholesterol efflux/8 hours, No cAMP [1]: 1.27% | % cholesterol efflux/8 hours, Plus cAMP [1]: 6.52% | % cholesterol efflux/4 hours at 0.1 µg/ml [2]: 0% | % cholesterol efflux/4 hours at 0.3 µg/ml [2]: 0% | % cholesterol efflux/4 hours at 1.0 µg/ml [2]: 0.02% | % cholesterol efflux/4 hours at 3.0 µg/ml [2]: 1.3% | % cholesterol efflux/4 hours at 10 µg/ml [2]: 5.7% | % cholesterol efflux/4 hours at 30 µg/ml [2]: 5.92%

ELREKLEAWFELFEEFFARFKS [N356-3]
% cholesterol efflux/8 hours, No cAMP [1]: 0.82% | % cholesterol efflux/8 hours, Plus cAMP [1]: 3.94% | % cholesterol efflux/4 hours at 0.1 µg/ml [2]: 0% | % cholesterol efflux/4 hours at 0.3 µg/ml [2]: 0.57% | % cholesterol efflux/4 hours at 1.0 µg/ml [2]: 1.2% | % cholesterol efflux/4 hours at 3.0 µg/ml [2]: 4.34% | % cholesterol efflux/4 hours at 10 µg/ml [2]: 5.13% | % cholesterol efflux/4 hours at 30 µg/ml [2]: 3.24%

ELREKLEAWLELLRELLERL [N1154-6]
% cholesterol efflux/8 hours, No cAMP [5]: 1.17% | % cholesterol efflux/8 hours, Plus cAMP [5]: 4.29% | % cholesterol efflux/4 hours at 0.1 µg/ml [6]: 0.18% | % cholesterol efflux/4 hours at 0.3 µg/ml [6]: 0.46% | % cholesterol efflux/4 hours at 1.0 µg/ml [6]: 2.51% | % cholesterol efflux/4 hours at 3.0 µg/ml [6]: 4.73% | % cholesterol efflux/4 hours at 10 µg/ml [6]: 3.56% | % cholesterol efflux/4 hours at 30 µg/ml [6]: 2.71%

ELRERLEAWLELLRELLERL [N1154-7]
% cholesterol efflux/8 hours, No cAMP [5]: 1.23% | % cholesterol efflux/8 hours, Plus cAMP [5]: 4.14% | % cholesterol efflux/4 hours at 0.1 µg/ml [6]: 0.23% | % cholesterol efflux/4 hours at 0.3 µg/ml [6]: 0.83% | % cholesterol efflux/4 hours at 1.0 µg/ml [6]: 2.26% | % cholesterol efflux/4 hours at 3.0 µg/ml [6]: 4.14% | % cholesterol efflux/4 hours at 10 µg/ml [6]: 3.24% | % cholesterol efflux/4 hours at 30 µg/ml [6]: 3.28%

ELRDKLEAWLDLLRELLERL [N1154-8]
% cholesterol efflux/8 hours, No cAMP [5]: 1.31% | % cholesterol efflux/8 hours, Plus cAMP [5]: 4.38% | % cholesterol efflux/4 hours at 0.1 µg/ml [6]: 0% | % cholesterol efflux/4 hours at 0.3 µg/ml [6]: 0.48% | % cholesterol efflux/4 hours at 1.0 µg/ml [6]: 1.51% | % cholesterol efflux/4 hours at 3.0 µg/ml [6]: 3.41% | % cholesterol efflux/4 hours at 10 µg/ml [6]: 2.99% | % cholesterol efflux/4 hours at 30 µg/ml [6]: 3.02%

DLRDKLDAWLDLLRDLLDRL [N1154-9]
% cholesterol efflux/8 hours, No cAMP [5]: 1.81% | % cholesterol efflux/8 hours, Plus cAMP [5]: 4.83% | % cholesterol efflux/4 hours at 0.1 µg/ml [6]: 0.08% | % cholesterol efflux/4 hours at 0.3 µg/ml [6]: 0.43% | % cholesterol efflux/4 hours at 1.0 µg/ml [6]: 1.81% | % cholesterol efflux/4 hours at 3.0 µg/ml [6]: 3.48% | % cholesterol efflux/4 hours at 10 µg/ml [6]: 3.31% | % cholesterol efflux/4 hours at 30 µg/ml [6]: 4.35%

ELRDRLEAWLDLLRELLERL [N1154-10]
% cholesterol efflux/8 hours, No cAMP [5]: 2.66% | % cholesterol efflux/8 hours, Plus cAMP [5]: 8.25% | % cholesterol efflux/4 hours at 0.1 µg/ml [6]: 0.58% | % cholesterol efflux/4 hours at 0.3 µg/ml [6]: 1% | % cholesterol efflux/4 hours at 1.0 µg/ml [6]: 2.12% | % cholesterol efflux/4 hours at 3.0 µg/ml [6]: 5.25% | % cholesterol efflux/4 hours at 10 µg/ml [6]: 4.15% | % cholesterol efflux/4 hours at 30 µg/ml [6]: 3.7%

DLRDRLDAWLDLLRDLLDRL [N1154-11]
% cholesterol efflux/8 hours, No cAMP [5]: 4.2% | % cholesterol efflux/8 hours, Plus cAMP [5]: 9.04% | % cholesterol efflux/4 hours at 0.1 µg/ml [6]: 0.58% | % cholesterol efflux/4 hours at 0.3 µg/ml [6]: 1.34% | % cholesterol efflux/4 hours at 1.0 µg/ml [6]: 2.56% | % cholesterol efflux/4 hours at 3.0 µg/ml [6]: 4.84% | % cholesterol efflux/4 hours at 10 µg/ml [6]: 4.17% | % cholesterol efflux/4 hours at 30 µg/ml [6]: 5.55%
